B1: NECTIN1, Q15223 (peptide)
chain: SFISKKEWYV

The binders below were run against T1, DFNB31_3, Q9P202 (assay: holdup assay). Settings: plain residues with an end cap or a label only (N-terminal biotin on a linker: ado-ado).
T1 sequence (Q9P202 811-907, limits assumed, looked up): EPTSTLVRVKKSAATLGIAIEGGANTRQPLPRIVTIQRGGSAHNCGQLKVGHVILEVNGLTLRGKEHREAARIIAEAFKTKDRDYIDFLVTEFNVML
Set-up: key: below the threshold = too weak to quantify, mostly under pKd 3.1 to 4

Binder	pKd
B1	below the threshold

Each binder was assayed against T2, APBA3_1, O96018 (assay: holdup assay). Settings: plain residues with an end cap or a label only (N-terminal biotin on a linker: ado-ado).
T2 sequence (O96018 389-490, limits assumed, looked up): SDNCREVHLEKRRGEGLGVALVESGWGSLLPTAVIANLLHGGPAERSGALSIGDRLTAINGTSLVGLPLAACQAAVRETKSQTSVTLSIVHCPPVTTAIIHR
Set-up: key: below the threshold = too weak to quantify, mostly under pKd 3.1 to 4

Binder	pKd
B1	below the threshold

The binders below were run against T3, SNTG1, Q9NSN8 (assay: holdup assay). Settings: plain residues with an end cap or a label only (N-terminal biotin on a linker: ado-ado).
T3 sequence (Q9NSN8 52-150, limits assumed, looked up): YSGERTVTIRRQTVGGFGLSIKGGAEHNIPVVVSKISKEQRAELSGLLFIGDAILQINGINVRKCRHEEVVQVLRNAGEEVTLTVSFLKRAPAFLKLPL
Set-up: key: below the threshold = too weak to quantify, mostly under pKd 3.1 to 4

Binder	pKd
B1	3.51

What follows are binders tested against LNX1_2, Q8TBB1 (assay: holdup assay). Settings: plain residues with an end cap or a label only (N-terminal biotin on a linker: ado-ado).
LNX1_2, Q8TBB1, sequence (Q8TBB1 371-470): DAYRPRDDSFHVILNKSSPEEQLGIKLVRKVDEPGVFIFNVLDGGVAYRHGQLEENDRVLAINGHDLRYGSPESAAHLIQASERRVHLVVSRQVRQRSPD
Set-up: key: below the threshold = too weak to quantify, mostly under pKd 3.1 to 4

Binder	pKd
B1	4.46

What follows are binders tested against GRASP, Q7Z6J2 (assay: holdup assay). Settings: plain residues with an end cap or a label only (N-terminal biotin on a linker: ado-ado).
GRASP, Q7Z6J2, sequence (Q7Z6J2 96-193): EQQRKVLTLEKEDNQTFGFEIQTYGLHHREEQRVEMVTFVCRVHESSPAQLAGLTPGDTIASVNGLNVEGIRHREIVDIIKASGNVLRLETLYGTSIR
Set-up: key: below the threshold = too weak to quantify, mostly under pKd 3.1 to 4

Binder	pKd
B1	below the threshold

What follows are binders tested against Inadl_6, Q8NI35 (assay: holdup assay). Settings: plain residues with an end cap or a label only (N-terminal biotin on a linker: ado-ado).
Inadl_6, Q8NI35, sequence (Q8NI35 1058-1167): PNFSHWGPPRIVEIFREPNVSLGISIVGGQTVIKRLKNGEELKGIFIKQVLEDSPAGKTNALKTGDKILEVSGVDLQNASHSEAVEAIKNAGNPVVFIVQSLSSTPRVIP
Set-up: key: below the threshold = too weak to quantify, mostly under pKd 3.1 to 4

Binder	pKd
B1	below the threshold

These binders were tested against NHERF2_2, Q15599 (assay: holdup assay). Settings: plain residues with an end cap or a label only (N-terminal biotin on a linker: ado-ado).
NHERF2_2, Q15599, sequence (Q15599 142-238): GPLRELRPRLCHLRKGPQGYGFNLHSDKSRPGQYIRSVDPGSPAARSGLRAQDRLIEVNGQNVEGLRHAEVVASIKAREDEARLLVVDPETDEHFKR
Set-up: key: below the threshold = too weak to quantify, mostly under pKd 3.1 to 4

Binder	pKd
B1	below the threshold

Each binder was assayed against Inadl_2, Q8NI35 (assay: holdup assay). Settings: plain residues with an end cap or a label only (N-terminal biotin on a linker: ado-ado).
Inadl_2, Q8NI35, sequence (Q8NI35 238-335): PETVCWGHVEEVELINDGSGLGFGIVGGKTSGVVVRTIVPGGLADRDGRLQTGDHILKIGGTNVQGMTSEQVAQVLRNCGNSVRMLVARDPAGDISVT
Set-up: key: below the threshold = too weak to quantify, mostly under pKd 3.1 to 4

Binder	pKd
B1	4.8

Each binder was assayed against DLG4_3, P78352 (assay: holdup assay). Settings: plain residues with an end cap or a label only (N-terminal biotin on a linker: ado-ado).
DLG4_3, P78352, sequence (P78352 306-403): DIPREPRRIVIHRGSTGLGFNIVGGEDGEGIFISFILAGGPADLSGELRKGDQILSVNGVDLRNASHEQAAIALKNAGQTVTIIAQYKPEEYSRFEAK
Set-up: key: below the threshold = too weak to quantify, mostly under pKd 3.1 to 4

Binder	pKd
B1	below the threshold

What follows are binders tested against HTRA1, Q92743 (assay: holdup assay). Settings: plain residues with an end cap or a label only (N-terminal biotin on a linker: ado-ado).
HTRA1, Q92743, sequence (Q92743 360-477): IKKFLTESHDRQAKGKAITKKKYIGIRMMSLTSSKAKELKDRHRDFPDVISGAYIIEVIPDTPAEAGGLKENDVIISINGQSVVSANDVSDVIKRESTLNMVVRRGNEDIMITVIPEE
Set-up: key: below the threshold = too weak to quantify, mostly under pKd 3.1 to 4

Binder	pKd
B1	5.24

Each binder was assayed against T4, SNTA1, Q13424 (assay: holdup assay). Settings: plain residues with an end cap or a label only (N-terminal biotin on a linker: ado-ado).
T4 sequence (Q13424 82-180, limits assumed, looked up): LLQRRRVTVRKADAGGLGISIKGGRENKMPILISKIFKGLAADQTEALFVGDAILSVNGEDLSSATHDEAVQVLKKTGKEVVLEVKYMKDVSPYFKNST
Set-up: key: below the threshold = too weak to quantify, mostly under pKd 3.1 to 4

Binder	pKd
B1	below the threshold

What follows are binders tested against T5, HTRA3, P83110 (assay: holdup assay). Settings: plain residues with an end cap or a label only (N-terminal biotin on a linker: ado-ado).
T5 sequence (P83110 354-453, limits assumed, looked up): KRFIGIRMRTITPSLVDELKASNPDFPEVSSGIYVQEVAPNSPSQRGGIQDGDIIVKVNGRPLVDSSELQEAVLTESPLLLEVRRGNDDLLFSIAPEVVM
Set-up: key: below the threshold = too weak to quantify, mostly under pKd 3.1 to 4

Binder	pKd
B1	4.83

What follows are binders tested against T6, APBA2_1, Q99767 (assay: holdup assay). Settings: plain residues with an end cap or a label only (N-terminal biotin on a linker: ado-ado).
T6 sequence (Q99767 563-664, limits assumed, looked up): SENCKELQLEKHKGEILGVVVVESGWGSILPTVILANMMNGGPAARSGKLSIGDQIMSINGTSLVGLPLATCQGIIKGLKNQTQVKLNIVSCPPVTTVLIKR
Set-up: key: below the threshold = too weak to quantify, mostly under pKd 3.1 to 4

Binder	pKd
B1	below the threshold

These binders were tested against MAGI2_4, Q86UL8 (assay: holdup assay). Settings: plain residues with an end cap or a label only (N-terminal biotin on a linker: ado-ado).
MAGI2_4, Q86UL8, sequence (Q86UL8 772-865): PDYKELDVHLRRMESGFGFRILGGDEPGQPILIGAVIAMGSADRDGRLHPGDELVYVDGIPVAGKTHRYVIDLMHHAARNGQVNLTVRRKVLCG
Set-up: key: below the threshold = too weak to quantify, mostly under pKd 3.1 to 4

Binder	pKd
B1	3.8

Each binder was assayed against T7, DFNB31_2, Q9P202 (assay: holdup assay). Settings: plain residues with an end cap or a label only (N-terminal biotin on a linker: ado-ado).
T7 sequence (Q9P202 274-371, limits assumed, looked up): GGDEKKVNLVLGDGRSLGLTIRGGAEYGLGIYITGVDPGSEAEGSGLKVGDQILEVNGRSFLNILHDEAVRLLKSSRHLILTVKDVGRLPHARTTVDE
Set-up: key: below the threshold = too weak to quantify, mostly under pKd 3.1 to 4

Binder	pKd
B1	below the threshold

The binders below were run against IL16_1, Q14005 (assay: holdup assay). Settings: plain residues with an end cap or a label only (N-terminal biotin on a linker: ado-ado).
IL16_1, Q14005, sequence (Q14005 210-306): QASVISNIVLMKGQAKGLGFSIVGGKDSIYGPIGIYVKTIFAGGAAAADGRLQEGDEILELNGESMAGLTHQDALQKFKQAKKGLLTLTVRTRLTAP
Set-up: key: below the threshold = too weak to quantify, mostly under pKd 3.1 to 4

Binder	pKd
B1	below the threshold

These binders were tested against IL16_4, Q14005 (assay: holdup assay). Settings: plain residues with an end cap or a label only (N-terminal biotin on a linker: ado-ado).
IL16_4, Q14005, sequence (Q14005 1229-1329): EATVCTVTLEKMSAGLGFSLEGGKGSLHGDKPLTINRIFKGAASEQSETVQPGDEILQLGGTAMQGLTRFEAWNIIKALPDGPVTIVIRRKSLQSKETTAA
Set-up: key: below the threshold = too weak to quantify, mostly under pKd 3.1 to 4

Binder	pKd
B1	below the threshold

These binders were tested against MAST1, Q9Y2H9 (assay: holdup assay). Settings: plain residues with an end cap or a label only (N-terminal biotin on a linker: ado-ado).
MAST1, Q9Y2H9, sequence (Q9Y2H9 962-1065): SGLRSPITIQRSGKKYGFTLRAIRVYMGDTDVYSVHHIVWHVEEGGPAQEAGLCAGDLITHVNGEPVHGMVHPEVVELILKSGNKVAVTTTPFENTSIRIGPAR
Set-up: key: below the threshold = too weak to quantify, mostly under pKd 3.1 to 4

Binder	pKd
B1	3.95

Each binder was assayed against T8, DLG3_2, Q92796 (assay: holdup assay). Settings: plain residues with an end cap or a label only (N-terminal biotin on a linker: ado-ado).
T8 sequence (Q92796 221-321, limits assumed, looked up): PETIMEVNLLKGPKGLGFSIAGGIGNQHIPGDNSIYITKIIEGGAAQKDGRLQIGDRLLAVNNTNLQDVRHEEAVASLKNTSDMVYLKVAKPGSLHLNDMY
Set-up: key: below the threshold = too weak to quantify, mostly under pKd 3.1 to 4

Binder	pKd
B1	4.11

The binders below were run against T9, PARD3B_1, Q8TEW8 (assay: holdup assay). Settings: plain residues with an end cap or a label only (N-terminal biotin on a linker: ado-ado).
T9 sequence (Q8TEW8 196-299, limits assumed, looked up): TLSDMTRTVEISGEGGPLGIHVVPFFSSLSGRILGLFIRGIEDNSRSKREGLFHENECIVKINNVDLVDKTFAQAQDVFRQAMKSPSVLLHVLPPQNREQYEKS
Set-up: key: below the threshold = too weak to quantify, mostly under pKd 3.1 to 4

Binder	pKd
B1	4.73

The binders below were run against SCRIB_1, Q14160 (assay: holdup assay). Settings: plain residues with an end cap or a label only (N-terminal biotin on a linker: ado-ado).
SCRIB_1, Q14160, sequence (Q14160 718-814): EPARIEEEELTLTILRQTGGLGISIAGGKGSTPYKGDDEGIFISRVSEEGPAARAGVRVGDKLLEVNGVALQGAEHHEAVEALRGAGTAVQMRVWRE
Set-up: key: below the threshold = too weak to quantify, mostly under pKd 3.1 to 4

Binder	pKd
B1	below the threshold

What follows are binders tested against LAP2, Q96RT1 (assay: holdup assay). Settings: plain residues with an end cap or a label only (N-terminal biotin on a linker: ado-ado).
LAP2, Q96RT1, sequence (Q96RT1 other isoform, or with tags, fused parts or gaps): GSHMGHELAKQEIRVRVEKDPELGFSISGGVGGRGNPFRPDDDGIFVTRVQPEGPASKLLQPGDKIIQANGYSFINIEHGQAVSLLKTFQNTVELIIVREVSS
Set-up: key: below the threshold = too weak to quantify, mostly under pKd 3.1 to 4

Binder	pKd
B1	below the threshold

These binders were tested against GRIP2_5, Q9C0E4 (assay: holdup assay). Settings: plain residues with an end cap or a label only (N-terminal biotin on a linker: ado-ado).
GRIP2_5, Q9C0E4, sequence (Q9C0E4 544-642): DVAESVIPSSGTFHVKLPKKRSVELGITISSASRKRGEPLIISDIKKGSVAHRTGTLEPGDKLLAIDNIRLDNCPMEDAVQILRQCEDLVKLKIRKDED
Set-up: key: below the threshold = too weak to quantify, mostly under pKd 3.1 to 4

Binder	pKd
B1	below the threshold

What follows are binders tested against T10, DLG3_3, Q92796 (assay: holdup assay). Settings: plain residues with an end cap or a label only (N-terminal biotin on a linker: ado-ado).
T10 sequence (Q92796 374-475, limits assumed, looked up): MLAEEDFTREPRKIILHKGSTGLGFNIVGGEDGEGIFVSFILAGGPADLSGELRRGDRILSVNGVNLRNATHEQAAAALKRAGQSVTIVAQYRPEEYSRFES
Set-up: key: below the threshold = too weak to quantify, mostly under pKd 3.1 to 4

Binder	pKd
B1	below the threshold

What follows are binders tested against Inadl_9, Q8NI35 (assay: holdup assay). Settings: plain residues with an end cap or a label only (N-terminal biotin on a linker: ado-ado).
Inadl_9, Q8NI35, sequence (Q8NI35 1530-1615): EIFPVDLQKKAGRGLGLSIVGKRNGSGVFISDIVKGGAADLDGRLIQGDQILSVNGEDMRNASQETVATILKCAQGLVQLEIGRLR
Set-up: key: below the threshold = too weak to quantify, mostly under pKd 3.1 to 4

Binder	pKd
B1	4.28

Each binder was assayed against T11, MPP6, Q9NZW5 (assay: holdup assay). Settings: plain residues with an end cap or a label only (N-terminal biotin on a linker: ado-ado).
T11 sequence (Q9NZW5 125-219, limits assumed, looked up): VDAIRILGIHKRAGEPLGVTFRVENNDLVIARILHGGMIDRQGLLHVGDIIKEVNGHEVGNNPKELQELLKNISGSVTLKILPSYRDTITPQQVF
Set-up: key: below the threshold = too weak to quantify, mostly under pKd 3.1 to 4

Binder	pKd
B1	4.42
